In data set [1] the target is T1, acyl-ACP4(4) adduct 4a ((2S,3R)-diketide on ACP4(4)), Q03132.
T1 chain: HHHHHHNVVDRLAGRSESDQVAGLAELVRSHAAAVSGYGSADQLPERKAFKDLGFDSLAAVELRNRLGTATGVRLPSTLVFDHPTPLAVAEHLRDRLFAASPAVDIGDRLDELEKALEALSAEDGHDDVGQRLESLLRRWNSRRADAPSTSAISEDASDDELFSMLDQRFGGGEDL

Data set [2] addresses T2, acyl-ACP4(4) adduct 4b ((2R,3S)-diketide on ACP4(4)), Q03132.
T2 chain: T1 chain

Data set [3] deals with T3, acyl-ACP4(4) adduct 4c ((2S,3S)-diketide on ACP4(4)), Q03132.
T3 chain: T1 chain

Data set [4] has as its target T4, acyl-ACP4(4) adduct 4d ((2R,3R)-diketide on ACP4(4)), Q03132.
T4 chain: T1 chain

B1: (5)M2+TE (N-ERL-M2+TE; plasmid pRSG64) (protein)
chain: MSGDNGMTEEKLRRYLKRTVTELDSVTARLREVEHRAGEIAIVGMACRLPGEVDSPERLWELITSGRDSAAEVPDDRGWVPDELMASDAAGTRAHGNFMAGAGDFDAAFFGISPREALAMDPQQRQALETTWEALESAGIPPETLRGSDTGVFVGMSHQGYATGRPRPEDGVDGYLLTGNTASVASGRIAYVLGLEGPALTVDTACSSSLVALHTACGSLRDGDCGLAVAGGVSVMAGPEVFTEFSRQGALSPDGRCKPFSDEADGFGLGEGSAFVVLQRLSDARREGRRVLGVVAGSAVNQDGASNGLSAPSGVAQQRVIRRAWARAGITGADVAVVEAHGTGTRLGDPVEASALLATYGKSRGSSGPVLLGSVKSNIGHAQAAAGVAGVIKVLLGLERGVVPPMLCRGERSGLIDWSSGEIELADGVREWSPAADGVRRAGVSAFGVSGTNAHVIIAEPPEPEPVPQPRRMLPATGVVPVVLSARTGAALRAQAGRLADHLAAHPGIAPADVSWTMARARQHFEERAAVLAADTAEAVHRLRAVADGAVVPGVVTGSASDGGSVFVFPGQGAQWEGMARELLPVPVFAESIAECDAVLSEVAGFSVSEVLEPRPDAPSLERVDVVQPVLFAVMVSLARLWRACGAVPSAVIGHSQGEIAAAVVAGALSLEDGMRVVARRSRAVRAVAGRGSMLSVRGGRSDVEKLLADDSWTGRLEVAAVNGPDAVVVAGDAQAAREFLEYCEGVGIRARAIPVDYASHTAHVEPVRDELVQALAGITPRRAEVPFFSTLTGDFLDGTELDAGYWYRNLRHPVEFHSAVQALTDQGYATFIEVSPHPVLASSVQETLDDAESDAAVLGTLERDAGDADRFLTALADAHTRGVAVDWEAVLGRAGLVDLPGYPFQGKRFWLLPDRTTPRDELDGWFYRVDWTEVPRSEPAALRGRWLVVVPEGHEEDGWTVEVRSALAEAGAEPEVTRGVGGLVGDCAGVVSLLALEGDGAVQTLVLVRELDAEGIDAPLWTVTFGAVDAGSPVARPDQAKLWGLGQVASLERGPRWTGLVDLPHMPDPELRGRLTAVLAGSEDQVAVRADAVRARRLSPAHVTATSEYAVPGGTILVTGGTAGLGAEVARWLAGRGAEHLALVSRRGPDTEGVGDLTAELTRLGARVSVHACDVSSREPVRELVHGLIEQGDVVRGVVHAAGLPQQVAINDMDEAAFDEVVAAKAGGAVHLDELCSDAELFLLFSSGAGVWGSARQGAYAAGNAFLDAFARHRRGRGLPATSVAWGLWAAGGMTGDEEAVSFLRERGVRAMPVPRALAALDRVLASGETAVVVTDVDWPAFAESYTAARPRPLLDRIVTTAPSERAGEPETESLRDRLAGLPRAERTAELVRLVRTSTATVLGHDDPKAVRATTPFKELGFDSLAAVRLRNLLNAATGLRLPSTLVFDHPNASAVAGFLDICCAGTAAISGPHEFTRLAGALRGIAPVRAVPQPGYEEGEPLPSSMAAVAAVQADAVIRTQGDKPFVVAGHSAGALMAYALATELLDRGHPPRGVVLIDVYPPGHQDAMNAWLEELTATLFDRETVRMDDTRLTALGAYDRLTGQWRPRETGLPTLLVSAGEPMGPWPDDSWKPTWPFEHDTVAVPGDHFTMVQEHADAIARHIDAWHHHHHH
Consider B1, for which the “diketide incorporation from acyl-ACP (triketide lactone formation)” value in data set [1] was “Both 4a and 4b were accepted and extended by all three modules”; in data set [2], “Both 4a and 4b were accepted and extended by all three modules”; in data set [3] it was 4c and 4d were also substrates for the three modules; in data set [4], 4c and 4d were also substrates for the three modules.

B2: M3+TE (module 3 of DEBS with its own N-terminal linker and with the thioesterase fused to the C-terminus; plasmid pRSG34) (protein)
chain: MTDSEKVAEYLRRATLDLRAARQRIRELESDIAIVSMACRLPGGVNTPQRLWELLREGGETLSGFPTDRGWDLARLHHPDPDNPGTSYVDKGGFLDDAAGFDAEFFGVSPREAAAMDPQQRLLLETSWELVENAGIDPHSLRGTATGVFLGVAKFGYGEDTAAAEDVEGYSVTGVAPAVASGRISYTMGLEGPSISVDTACSSSLVALHLAVESLRKGESSMAVVGGAAVMATPGVFVDFSRQRALAADGRSKAFGAGADGFGFSEGVTLVLLERLSEARRNGHEVLAVVRGSALNQDGASNGLSAPSGPAQRRVIRQALESCGLEPGDVDAVEAHGTGTALGDPIEANALLDTYGRDRDADRPLWLGSVKSNIGHTQAAAGVTGLLKVVLALRNGELPATLHVEEPTPHVDWSSGGVALLAGNQPWRRGERTRRARVSAFGISGTNAHVIVEEAPEREHRETTAHDGRPVPLVVSARTTAALRAQAAQIAELLERPDADLAGVGLGLATTRARHEHRAAVVASTREEAVRGLREIAAGAATADAVVEGVTEVDGRNVVFLFPGQGSQWAGMGAELLSSSPVFAGKIRACDESMAPMQDWKVSDVLRQAPGAPGLDRVDVVQPVLFAVMVSLAELWRSYGVEPAAVVGHSQGEIAAAHVAGALTLEDAAKLVVGRSRLMRSLSGEGGMAAVALGEAAVRERLRPWQDRLSVAAVNGPRSVVVSGEPGALRAFSEDCAAEGIRVRDIDVDYASHSPQIERVREELLETTGDIAPRPARVTFHSTVESRSMDGTELDARYWYRNLRETVRFADAVTRLAESGYDAFIEVSPHPVVVQAVEEAVEEADGAEDAVVVGSLHRDGGDLSAFLRSMATAHVSGVDIRWDVALPGAAPFALPTYPFQRKRYWLQPAAPAAASDELAYRVSWTPIEKPESGNLDGDWLVVTPLISPEWTEMLCEAINANGGRALRCEVDTSASRTEMAQAVAQAGTGFRGVLSLLSSDESACRPGVPAGAVGLLTLVQALGDAGVDAPVWCLTQGAVRTPADDDLARPAQTTAHGFAQVAGLELPGRWGGVVDLPESVDDAALRLLVAVLRGGGRAEDHLAVRDGRLHGRRVVRASLPQSGSRSWTPHGTVLVTGAASPVGDQLVRWLADRGAERLVLAGACPGDDLLAAVEEAGASAVVCAQDAAALREALGDEPVTALVHAGTLTNFGSISEVAPEEFAETIAAKTALLAVLDEVLGDRAVEREVYCSSVAGIWGGAGMAAYAAGSAYLDALAEHHRARGRSCTSVAWTPWALPGGAVDDGYLRERGLRSLSADRAMRTWERVLAAGPVSVAVADVDWPVLSEGFAATRPTALFAELAGRGGQAEAEPDSGPTGEPAQRLAGLSPDEQQENLLELVANAVAEVLGHESAAEINVRRAFSELGLDSLNAMALRKRLSASTGLRLPASLVFDHPTVTALAQHLRICCAGTAAISGPHEFTRLAGALRGIAPVRAVPQPGYEEGEPLPSSMAAVAAVQADAVIRTQGDKPFVVAGHSAGALMAYALATELLDRGHPPRGVVLIDVYPPGHQDAMNAWLEELTATLFDRETVRMDDTRLTALGAYDRLTGQWRPRETGLPTLLVSAGEPMGPWPDDSWKPTWPFEHDTVAVPGDHFTMVQEHADAIARHIDAWHHHHHH
With B2, the “diketide incorporation from acyl-ACP (product formation)” value in data set [1], in data set [2], in data set [3] and in data set [4] was “no product formation was observed from the incubation of any of the acyl-ACP adducts with (3)M3+TE” in each case.

B3: (5)M3+TE (derivative of M3+TE where the natural N-terminal linker has been replaced with the N-terminal linker of module 5 of DEBS; plasmid pST132) (protein)
chain: MSGDNGMTEEKLRRYLKRTVTELDSVTARLREVEHRAGEPIAIVSMACRLPGGVNTPQRLWELLREGGETLSGFPTDRGWDLARLHHPDPDNPGTSYVDKGGFLDDAAGFDAEFFGVSPREAAAMDPQQRLLLETSWELVENAGIDPHSLRGTATGVFLGVAKFGYGEDTAAAEDVEGYSVTGVAPAVASGRISYTMGLEGPSISVDTACSSSLVALHLAVESLRKGESSMAVVGGAAVMATPGVFVDFSRQRALAADGRSKAFGAGADGFGFSEGVTLVLLERLSEARRNGHEVLAVVRGSALNQDGASNGLSAPSGPAQRRVIRQALESCGLEPGDVDAVEAHGTGTALGDPIEANALLDTYGRDRDADRPLWLGSVKSNIGHTQAAAGVTGLLKVVLALRNGELPATLHVEEPTPHVDWSSGGVALLAGNQPWRRGERTRRARVSAFGISGTNAHVIVEEAPEREHRETTAHDGRPVPLVVSARTTAALRAQAAQIAELLERPDADLAGVGLGLATTRARHEHRAAVVASTREEAVRGLREIAAGAATADAVVEGVTEVDGRNVVFLFPGQGSQWAGMGAELLSSSPVFAGKIRACDESMAPMQDWKVSDVLRQAPGAPGLDRVDVVQPVLFAVMVSLAELWRSYGVEPAAVVGHSQGEIAAAHVAGALTLEDAAKLVVGRSRLMRSLSGEGGMAAVALGEAAVRERLRPWQDRLSVAAVNGPRSVVVSGEPGALRAFSEDCAAEGIRVRDIDVDYASHSPQIERVREELLETTGDIAPRPARVTFHSTVESRSMDGTELDARYWYRNLRETVRFADAVTRLAESGYDAFIEVSPHPVVVQAVEEAVEEADGAEDAVVVGSLHRDGGDLSAFLRSMATAHVSGVDIRWDVALPGAAPFALPTYPFQRKRYWLQPAAPAAASDELAYRVSWTPIEKPESGNLDGDWLVVTPLISPEWTEMLCEAINANGGRALRCEVDTSASRTEMAQAVAQAGTGFRGVLSLLSSDESACRPGVPAGAVGLLTLVQALGDAGVDAPVWCLTQGAVRTPADDDLARPAQTTAHGFAQVAGLELPGRWGGVVDLPESVDDAALRLLVAVLRGGGRAEDHLAVRDGRLHGRRVVRASLPQSGSRSWTPHGTVLVTGAASPVGDQLVRWLADRGAERLVLAGACPGDDLLAAVEEAGASAVVCAQDAAALREALGDEPVTALVHAGTLTNFGSISEVAPEEFAETIAAKTALLAVLDEVLGDRAVEREVYCSSVAGIWGGAGMAAYAAGSAYLDALAEHHRARGRSCTSVAWTPWALPGGAVDDGYLRERGLRSLSADRAMRTWERVLAAGPVSVAVADVDWPVLSEGFAATRPTALFAELAGRGGQAEAEPDSGPTGEPAQRLAGLSPDEQQENLLELVANAVAEVLGHESAAEINVRRAFSELGLDSLNAMALRKRLSASTGLRLPASLVFDHPTVTALAQHLRARLDSGTPAREASSALRDGYRQAGVSGRVRSYLDLLAGLSDFREHFDGSDGFSLDLVDMADGPGEVTVICCAGTAAISGPHEFTRLAGALRGIAPVRAVPQPGYEEGEPLPSSMAAVAAVQADAVIRTQGDKPFVVAGHSAGALMAYALATELLDRGHPPRGVVLIDVYPPGHQDAMNAWLEELTATLFDRETVRMDDTRLTALGAYDRLTGQWRPRETGLPTLLVSAGEPMGPWPDDSWKPTWPFEHDTVAVPGDHFTMVQEHADAIARHIDAWLGGGNSHHHHHH
For B3, the “diketide incorporation from acyl-ACP (product formation)” value in data set [1], in data set [2], in data set [3] and in data set [4] was “all four acyl-ACP adducts were observed to be substrates for (5)M3+TE” in each case.

The record behind these values is US7001748.
